Data taken from PMC5363963 (Biochemistry and Biophysics Reports, 2016).
Where two headings read alike, the source gives them in different places. Square brackets hold non-standard residues; d marks the D form. Ends that are not written are not given here.

T1: synthetic amyloid fibrils composed of human islet amyloid polypeptide (human, UniProt P10997 34-70)
T1 peptide (looked up): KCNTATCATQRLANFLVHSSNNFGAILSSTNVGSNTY


What was measured:
[1] = molecular target: synthetic amyloid fibrils composed of recombinant Vλ6 protein Wil; test: SPR
[2] = molecular target: synthetic amyloid fibrils composed of recombinant Vλ6 protein Wil; test: SPR; remark: listed apart in the source
[3] = molecular target: synthetic amyloid fibrils composed of Aβ(1-40) peptide; test: pull-down
[4] = molecular target: synthetic amyloid fibrils composed of recombinant Vλ6 protein Wil; test: pull-down
[5] = molecular target: T1, synthetic amyloid fibrils composed of …; test: pull-down

| Kd [1] [nM] | Kd [2] [nM] | ka1 (two-state model, first step) [2] [M⁻¹ s⁻¹] | ka2 (two-state model, second step) [2] [s⁻¹] | kd1 (two-state model, first step) [2] [s⁻¹] | kd2 (two-state model, second step) [2] [s⁻¹] | ratio of 1 M/0.15 M pulldown data (bound peptide in 1 M NaCl over that in PBS) [3] | ratio of 1 M/0.15 M pulldown data (bound peptide in 1 M NaCl over that in PBS) [4] | ratio of 1 M/0.15 M pulldown data (bound peptide in 1 M NaCl over that in PBS) [5] | percent inhibition of the binding of m6 (125I-p5) by a 1000-fold molar excess [4] [%] | percent inhibition of the binding of m7 (125I-p5(D)) by a 1000-fold molar excess [4] [%] | Binder |
| --- | --- | --- | --- | --- | --- | --- | --- | --- | --- | --- | --- |
| 5.4 | 22 | 550000 | 0.0074 | 0.052 | 0.0017 | – | – | – | – | – | GGG[dY][dS][dK][dA][dQ][dK][dA][dQ][dA][dK][dQ][dA][dK][dQ][dA][dQ][dK][dA][dQ][dK][dA][dQ][dA][dK][dQ][dA][dK][dQ] [peptide p5(D)] |
| 10 | 25 | 420000 | 0.007 | 0.026 | 0.0028 | – | – | – | – | – | VYKVKTKVKTKVKTKVKT [peptide p5(sheet)] |
| 18 | 34 | 75000 | 7.9e-06 | 0.001 | 1.5e-05 | – | – | – | – | – | GGGYSKGGKGGGKGGKGGGKGGKGGGKGGKG [peptide p5(coil)] |
| 25 | 71 | 120000 | 0.0122 | 0.045 | 0.0024 | – | – | – | – | – | GGGYSKAQKAPAKQAKQPQKAQKAPAKQAKQ [peptide p5(Pro3)] |

The remaining lines, values behind:

| Binder | Kd [1] [nM] | Kd [2] [nM] | ka1 (two-state model, first step) [2] [M⁻¹ s⁻¹] | ka2 (two-state model, second step) [2] [s⁻¹] | kd1 (two-state model, first step) [2] [s⁻¹] | kd2 (two-state model, second step) [2] [s⁻¹] | ratio of 1 M/0.15 M pulldown data (bound peptide in 1 M NaCl over that in PBS) [3] | ratio of 1 M/0.15 M pulldown data (bound peptide in 1 M NaCl over that in PBS) [4] | ratio of 1 M/0.15 M pulldown data (bound peptide in 1 M NaCl over that in PBS) [5] | percent inhibition of the binding of m6 (125I-p5) by a 1000-fold molar excess [4] [%] | percent inhibition of the binding of m7 (125I-p5(D)) by a 1000-fold molar excess [4] [%] |
| --- | --- | --- | --- | --- | --- | --- | --- | --- | --- | --- | --- |
| VYKVKTKVKTKVKTKVKT (also: radioiodinated with iodine-125, site not given here) [125I-labeled peptide p5(sheet)] | – | – | – | – | – | – | 0.21 | 0.35 | 0.2 | – | – |
| GGGYSKGGKGGGKGGKGGGKGGKGGGKGGKG (also: radioiodinated with iodine-125, site not given here) [125I-labeled peptide p5(coil)] | – | – | – | – | – | – | 0.07 | 0.02 | 0.12 | – | – |
| GGGYSKAQKAQAKQAKQAQKAQKAQAKQAKQ [peptide p5] | 3.7 | 15 | 480000 | 0.0315 | 0.203 | 0.0011 | – | – | – | 95 | 80 |
| GGGYSKAQKAPAKQAKQPQKAQKAPAKQAKQ (also: radioiodinated with iodine-125, site not given here) [125I-labeled peptide p5(Pro3)] | – | – | – | – | – | – | 0.01 | 0.01 | 0.07 | – | – |
